Measurements: the supplement of paper PMC6757056
± gives the standard deviation of the averaged measurements.

B1: library; a variant is named by its letters at N, in order (parent)
chain: GCUGUCACCGGUGCUUGGUACGUUAUAUUCAGCCGGUCUGAUGAGUCUNNNNNNAGACGAAACAGC

Experiments:
[1] = variants of: B1; experiment: normalized RNA/DNA level without ligand (relative to sTRSVctl = 100) (log10 (% of sTRSVctl)); HEK293T overexpressing SLC46A1; higher = less ribozyme self-cleavage, higher mRNA level; details: without (6R,S)-folinic acid; ligand present: no
Outline: (§1)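 Only sequences with at least 100 DNA reads were analyzed, from HEK293T cells transfected with 4 µg per 6-well well of ribozyme switch library plasmids 72 h before RNA extraction with EDTA. Any ligand was added 1 h before transfection. RNA level was defined as RNA over DNA reads, normalized to a spiked-in non-cleaving sequence or to the top sequences, then scaled and log-transformed. The top set was 25 sequences, and the scaling was ×100 followed by log10.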

[2] = variants of: B1; experiment: normalized RNA/DNA level with ligand (relative to sTRSVctl = 100) (log10 (% of sTRSVctl)); HEK293T overexpressing SLC46A1; ligand concentration (+) RNA-Seq: 6 mM; higher = less ribozyme self-cleavage, higher mRNA level; details: with (6R,S)-folinic acid; ligand present: yes
Outline: as §1

Variant	normalized RNA/DNA level without ligand (log10) [1]	normalized RNA/DNA level with ligand (log10) [2]
CACAGA	2.03 ± 0.015	2.01 ± 0.022
ACGGUA	1.9058 ± 0.0011	1.95 ± 0.029
CGUAGU	2.011 ± 0.0076	2 ± 0.034
AGUGAA	1.933 ± 0.0071	1.99 ± 0.033
CCACUC	1.9795 ± 0.0011	2.008 ± 0.02
ACCUGA	1.999 ± 0.003	2.03 ± 0.029
CGUCCU	2.11 ± 0.011	2.06 ± 0.031
AUGGGC	2.014 ± 0.0055	2.03 ± 0.041
AUAUGC	1.9727 ± 0.0008	1.99 ± 0.046
CUUGUC	2.091 ± 0.018	2.06 ± 0.027
GGGGUA	1.988 ± 0.0044	1.99 ± 0.028
GGAGGA	1.975 ± 0.0041	2.01 ± 0.046
CGAAGU	1.99 ± 0.03	2 ± 0.032
CGAUUG	2.028 ± 0.018	2.02 ± 0.035
AGCAAU	1.995 ± 0.0032	2.01 ± 0.033
CGGUCG	2.042 ± 0.0075	2.04 ± 0.021
GGCCUA	2.04 ± 0.021	2.01 ± 0.045
GCAGUG	1.9 ± 0.021	2.02 ± 0.038
CUACAU	1.974 ± 0.0066	2.02 ± 0.039
AGGGGU	1.98 ± 0.025	2.02 ± 0.039
AGGGGC	2.047 ± 0.0056	2.04 ± 0.053
UAUUUA	1.98 ± 0.024	2.01 ± 0.021
GCAGCU	2.03 ± 0.029	2.02 ± 0.045
GGCCGU	2.0789 ± 0.0012	2.02 ± 0.007

Variant	normalized RNA/DNA level without ligand (log10) [1]	normalized RNA/DNA level with ligand (log10) [2]
ACGUCC	2.03 ± 0.023	2 ± 0.068
ACGUCU	2.04 ± 0.028	2.025 ± 0.013
AUCAGC	2.065 ± 0.016	2.02 ± 0.031
GUCUGA	2.05 ± 0.021	2.05 ± 0.038
GGGCGC	2.011 ± 0.016	2.04 ± 0.048
GGGCGU	2.103 ± 0.0047	2.08 ± 0.05
AUUCCU	2.044 ± 0.0048	2.047 ± 0.018
AUUCCA	2.009 ± 0.0091	2.02 ± 0.047
CCUAAC	2.041 ± 0.0058	2.038 ± 0.017
GCUGGA	2.06 ± 0.0022	2.07 ± 0.046
GCCCGA	2.0343 ± 0.0013	2.04 ± 0.041
UAUGGU	1.8765 ± 0.0006	1.98 ± 0.026
UACCAU	1.9686 ± 0.001	2 ± 0.038
UUGCAA	1.96 ± 0.0066	1.987 ± 0.0035
UGGCCG	2.01 ± 0.036	2.03 ± 0.046
AAUUAG	1.94 ± 0.0025	2.01 ± 0.027
UCUCCA	2.017 ± 0.0042	2.023 ± 0.0081
GCUAGU	1.98 ± 0.024	2.01 ± 0.046
ACCCGU	2.0423 ± 0.0012	2.02 ± 0.0044
UAACAU	1.956 ± 0.016	2 ± 0.023
UCGACC	2.052 ± 0.0052	2.04 ± 0.036
GCAUCC	2.059 ± 0.0098	2.048 ± 0.0088
GGCUGC	2.07 ± 0.0054	2.05 ± 0.021
GUGGCG	1.993 ± 0.0028	2.015 ± 0.0038

Variant	normalized RNA/DNA level without ligand (log10) [1]	normalized RNA/DNA level with ligand (log10) [2]
GCGCCU	2.1 ± 0.023	2.09 ± 0.047
AGCGUG	1.92 ± 0.023	2.02 ± 0.03
GCAUUU	2.03 ± 0.0026	2.04 ± 0.04
GCGGAC	1.972 ± 0.0066	2.05 ± 0.029
CUGAGC	2.0258 ± 0.00095	2.01 ± 0.019
ACCCAU	2.013 ± 0.01	2.01 ± 0.036
GGAACU	2.035 ± 0.01	2.029 ± 0.016
GUUAGU	1.979 ± 0.0095	2.03 ± 0.044
CUCUCG	2.05 ± 0.014	2.014 ± 0.0035
GCCGUG	1.994 ± 0.012	2.033 ± 0.018
GCCGUU	2.067 ± 0.017	2.04 ± 0.006
CCCAGA	2.0467 ± 0.00053	2.029 ± 0.012
GGACUG	1.9977 ± 0.00047	2 ± 0.059
GUAGAC	1.911 ± 0.0045	2.003 ± 0.01
CCGCAU	2 ± 0.0024	2.017 ± 0.018
CAAGCG	2.057 ± 0.015	2.062 ± 0.0093
CCCGCU	2.109 ± 0.014	2.08 ± 0.068
CAAAGA	1.988 ± 0.015	1.99 ± 0.034
UGUCCC	2.06 ± 0.024	2.033 ± 0.017
UGUCCU	2.03 ± 0.034	2.07 ± 0.026
GACCAG	2.004 ± 0.013	2.022 ± 0.012
CCGUCU	2.04 ± 0.0053	2.05 ± 0.061
AUAAUC	2.024 ± 0.015	2 ± 0.032
UAGCUG	1.9 ± 0.021	2.026 ± 0.016

Variant	normalized RNA/DNA level without ligand (log10) [1]	normalized RNA/DNA level with ligand (log10) [2]
UAACGU	1.95 ± 0.028	2.003 ± 0.013
GCAACG	1.982 ± 0.0082	2.014 ± 0.02
AUGCUC	2.053 ± 0.0063	2.03 ± 0.053
UCUUGA	1.987 ± 0.0069	2.025 ± 0.006
ACCACU	2.029 ± 0.0042	1.99 ± 0.066
CUGCCU	2.034 ± 0.011	2.003 ± 0.006
CACUAG	1.949 ± 0.01	2.02 ± 0.034
CGAAAC	1.985 ± 0.0043	1.99 ± 0.04
ACCGUG	1.92 ± 0.02	2.007 ± 0.015
UUAUGC	1.989 ± 0.0091	2.02 ± 0.039
GUUACA	2.009 ± 0.012	2.01 ± 0.053
CCACAG	1.95 ± 0.026	2 ± 0.024
AGGUCG	1.985 ± 0.013	2.05 ± 0.043
CUUCCG	2.05 ± 0.029	2.06 ± 0.046
UUUUCA	2.018 ± 0.011	2.02 ± 0.041
AUCGGG	1.923 ± 0.017	2.05 ± 0.047
AGGGCA	2.033 ± 0.02	2.03 ± 0.042
UACGUA	1.918 ± 0.0029	1.98 ± 0.037
AUCCGG	2.0408 ± 0.002	2.05 ± 0.023
UCAUUA	2.003 ± 0.014	2.04 ± 0.023
CUUUAA	1.978 ± 0.0046	2 ± 0.026
CUUUAU	1.9766 ± 0.0013	2 ± 0.048
CUUUAG	1.97 ± 0.024	1.9987 ± 0.00067
UCGUAG	1.8378 ± 0.0006	2 ± 0.052

Variant	normalized RNA/DNA level without ligand (log10) [1]	normalized RNA/DNA level with ligand (log10) [2]
CGCGUC	2.071 ± 0.0094	2.06 ± 0.036
GCUCGA	2.039 ± 0.0067	2.02 ± 0.065
ACCUCA	2.047 ± 0.0058	2.07 ± 0.049
AGUUGG	1.87 ± 0.022	1.994 ± 0.015
CACAUC	2.035 ± 0.0021	2.04 ± 0.025
UAGCCA	2.034 ± 0.011	2.046 ± 0.019
GGUGAA	1.989 ± 0.0081	2.011 ± 0.02
CUACCG	2.06 ± 0.029	2.05 ± 0.025
CUAGUU	2.064 ± 0.0034	2.03 ± 0.041
CUAGUG	2 ± 0.028	2.03 ± 0.014
UCCAAC	2.067 ± 0.0087	2.06 ± 0.03
GGACCA	2.054 ± 0.017	2.02 ± 0.029
AUGUUA	1.938 ± 1.9e-05	1.98 ± 0.057
UGGUCA	1.9757 ± 0.0013	2.04 ± 0.062
GUAGUA	1.9662 ± 0.0006	1.98 ± 0.025
UAAACC	2.006 ± 0.0033	2.01 ± 0.043
AUUGAU	1.93 ± 0.0058	2.01 ± 0.036
UAUUCU	1.99 ± 0.039	2.04 ± 0.048
CACUGC	2.057 ± 0.016	2.05 ± 0.032
CACUGU	2.057 ± 0.0081	2.056 ± 0.011
